Experimental data published in patent US20210079040.

T1: Link N (human Link N, DHLSDNYTLDHDRAIH)
T1 sequence: DHLSDNYTLDHDRAIH


Test system: T1, Link N (human Link N, DHLSDNYTLDHDRAIH)

MMP 12, sequence (P39900 106-470): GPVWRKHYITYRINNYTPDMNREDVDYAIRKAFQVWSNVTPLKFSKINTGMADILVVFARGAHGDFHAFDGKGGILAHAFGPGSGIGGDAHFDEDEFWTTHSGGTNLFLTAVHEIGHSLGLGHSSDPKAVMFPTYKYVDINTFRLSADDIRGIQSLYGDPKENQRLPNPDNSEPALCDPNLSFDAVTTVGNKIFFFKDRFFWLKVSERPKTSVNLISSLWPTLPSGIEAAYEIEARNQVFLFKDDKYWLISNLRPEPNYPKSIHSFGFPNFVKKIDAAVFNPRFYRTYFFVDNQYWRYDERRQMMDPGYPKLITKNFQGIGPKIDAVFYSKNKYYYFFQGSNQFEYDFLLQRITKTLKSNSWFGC

Molecule | peak area intensity of the 1922 Da Link 1-16 peptide (mass spectrometry) after proteinase digest
ADAMTS 5 | un-affected by MMPs 3, 7, 12, 13, ADAMTS 4,5, HTRA1, and cathepsins B, and L
HTRA1 | un-affected by MMPs 3, 7, 12, 13, ADAMTS 4,5, HTRA1, and cathepsins B, and L
MMP 3 | un-affected by MMPs 3, 7, 12, 13, ADAMTS 4,5, HTRA1, and cathepsins B, and L
MMP 12 | un-affected by MMPs 3, 7, 12, 13, ADAMTS 4,5, HTRA1, and cathepsins B, and L
MMP 13 | un-affected by MMPs 3, 7, 12, 13, ADAMTS 4,5, HTRA1, and cathepsins B, and L
cathepsin B | un-affected by MMPs 3, 7, 12, 13, ADAMTS 4,5, HTRA1, and cathepsins B, and L
cathepsin L | un-affected by MMPs 3, 7, 12, 13, ADAMTS 4,5, HTRA1, and cathepsins B, and L
ADAMTS 4 (enzyme, UniProt O75173 213-837, looked up, species assumed) A disintegrin and metalloproteinase with thrombospondin motifs 4: FASLSRFVETLVVADDKMAAFHGAGLKRYLLTVMAAAAKAFKHPSIRNPVSLVVTRLVILGSGEEGPQVGPSAAQTLRSFCAWQRGLNTPEDSDPDHFDTAILFTRQDLCGVSTCDTLGMADVGTVCDPARSCAIVEDDGLQSAFTAAHELGHVFNMLHDNSKPCISLNGPLSTSRHVMAPVMAHVDPEEPWSPCSARFITDFLDNGYGHCLLDKPEAPLHLPVTFPGKDYDADRQCQLTFGPDSRHCPQLPPPCAALWCSGHLNGHAMCQTKHSPWADGTPCGPAQACMGGRCLHMDQLQDFNIPQAGGWGPWGPWGDCSRTCGGGVQFSSRDCTRPVPRNGGKYCEGRRTRFRSCNTEDCPTGSALTFREEQCAAYNHRTDLFKSFPGPMDWVPRYTGVAPQDQCKLTCQAQALGYYYVLEPRVVDGTPCSPDSSSVCVQGRCIHAGCDRIIGSKKKFDKCMVCGGDGSGCSKQSGSFRKFRYGYNNVVTIPAGATHILVRQQGNPGHRSIYLALKLPDGSYALNGEYTLMPSPTDVVLPGAVSLRYSGATAASETLSGHGPLAQPLTLQVLVAGNPQDTRLRYSFFVPRPTPSTPRPTPQDWLHRRAQILEILRRRPWAGRK | un-affected by MMPs 3, 7, 12, 13, ADAMTS 4,5, HTRA1, and cathepsins B, and L
MMP 7 (enzyme, UniProt P09237 95-267, looked up, species assumed) Matrilysin: YSLFPNSPKWTSKVVTYRIVSYTRDLPHITVDRLVSKALNMWGKEIPLHFRKVVWGTADIMIGFARGAHGDSYPFDGPGNTLAHAFAPGTGLGGDAHFDEDERWTDGSSLGINFLYAATHELGHSLGMGHSSDPNAVMYPTYGNGDPQNFKLSQDDIKGIQKLYGKRSNSRKK | un-affected by MMPs 3, 7, 12, 13, ADAMTS 4,5, HTRA1, and cathepsins B, and L
cathepsin K (enzyme, UniProt P43235 115-329, looked up, species assumed) Cathepsin K: APDSVDYRKKGYVTPVKNQGQCGSCWAFSSVGALEGQLKKKTGKLLNLSPQNLVDCVSENDGCGGGYMTNAFQYVQKNRGIDSEDAYPYVGQEESCMYNPTGKAAKCRGYREIPEGNEKALKRAVARVGPVSVAIDASLTSFQFYSKGVYYDESCNSDNLNHAVLAVGYGIQKGNKHWIIKNSWGENWGNKGYILMARNKNNACGIANLASFPKM | significantly diminished already after 30 minutes and was hardly detectable at 2 and 24 hours incubation with cathepsin K
